T1: fHbp m002333 (Neisseria meningitidis, engineered fHbp …, chimera)
T1 chain: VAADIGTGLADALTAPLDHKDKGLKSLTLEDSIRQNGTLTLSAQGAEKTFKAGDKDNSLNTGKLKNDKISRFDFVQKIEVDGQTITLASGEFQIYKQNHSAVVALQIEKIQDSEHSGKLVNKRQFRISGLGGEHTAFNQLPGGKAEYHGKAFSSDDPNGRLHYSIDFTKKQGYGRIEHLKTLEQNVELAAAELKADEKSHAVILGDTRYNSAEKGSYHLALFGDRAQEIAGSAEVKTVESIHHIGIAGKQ

T2: fHbp m001199 (Neisseria meningitidis fHbp v3.28-based …, point mutant)
T2 chain: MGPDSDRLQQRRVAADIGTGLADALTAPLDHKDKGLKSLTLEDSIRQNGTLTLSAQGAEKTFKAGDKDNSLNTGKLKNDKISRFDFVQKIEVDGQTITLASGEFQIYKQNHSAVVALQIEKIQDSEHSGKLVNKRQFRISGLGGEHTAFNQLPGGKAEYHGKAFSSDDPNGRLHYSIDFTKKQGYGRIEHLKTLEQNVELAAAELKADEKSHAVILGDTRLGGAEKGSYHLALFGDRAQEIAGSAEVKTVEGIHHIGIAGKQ

T3: fHbp m001659 (Neisseria meningitidis, fHbp …, point mutant)
T3 chain: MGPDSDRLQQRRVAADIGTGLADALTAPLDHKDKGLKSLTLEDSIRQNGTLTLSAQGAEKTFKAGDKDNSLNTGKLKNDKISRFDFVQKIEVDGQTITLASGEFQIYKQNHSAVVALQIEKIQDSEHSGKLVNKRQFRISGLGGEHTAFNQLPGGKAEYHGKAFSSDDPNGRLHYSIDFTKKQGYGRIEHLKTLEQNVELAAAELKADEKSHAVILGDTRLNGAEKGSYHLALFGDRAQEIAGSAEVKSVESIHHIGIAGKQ

T4: fHbp m002419 (Neisseria meningitidis fHbp v3.28, …, chimera)
T4 chain: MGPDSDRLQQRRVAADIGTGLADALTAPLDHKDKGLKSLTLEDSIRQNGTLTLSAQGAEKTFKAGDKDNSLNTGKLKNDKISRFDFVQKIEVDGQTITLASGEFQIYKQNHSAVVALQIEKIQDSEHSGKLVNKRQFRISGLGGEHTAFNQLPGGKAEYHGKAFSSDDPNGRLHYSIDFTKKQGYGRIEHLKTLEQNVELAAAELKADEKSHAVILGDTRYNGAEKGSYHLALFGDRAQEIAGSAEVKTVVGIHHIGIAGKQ

T5: fHbp m001039 (Neisseria meningitidis fHbp v3.28, …, point mutant)
T5 chain: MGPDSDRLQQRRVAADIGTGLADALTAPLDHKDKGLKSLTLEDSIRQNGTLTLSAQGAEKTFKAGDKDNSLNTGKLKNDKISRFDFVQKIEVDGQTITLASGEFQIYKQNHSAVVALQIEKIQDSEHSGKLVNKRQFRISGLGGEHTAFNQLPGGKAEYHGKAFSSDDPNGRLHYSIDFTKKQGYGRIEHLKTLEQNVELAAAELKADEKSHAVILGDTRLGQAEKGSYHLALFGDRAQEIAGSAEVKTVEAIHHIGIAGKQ

T6: fHbp m002336 (Neisseria meningitidis fHbp v3.28, …, chimera)
T6 chain: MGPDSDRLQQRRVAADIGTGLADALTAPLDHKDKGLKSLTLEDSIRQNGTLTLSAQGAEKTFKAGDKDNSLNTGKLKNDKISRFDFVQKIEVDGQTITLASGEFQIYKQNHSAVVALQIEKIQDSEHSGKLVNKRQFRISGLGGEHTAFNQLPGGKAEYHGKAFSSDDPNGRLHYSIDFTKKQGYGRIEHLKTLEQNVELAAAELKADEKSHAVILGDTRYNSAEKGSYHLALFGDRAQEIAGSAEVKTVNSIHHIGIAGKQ

T7: fHbp m001152 (Neisseria meningitidis fHbp v3.28-based …, point mutant)
T7 chain: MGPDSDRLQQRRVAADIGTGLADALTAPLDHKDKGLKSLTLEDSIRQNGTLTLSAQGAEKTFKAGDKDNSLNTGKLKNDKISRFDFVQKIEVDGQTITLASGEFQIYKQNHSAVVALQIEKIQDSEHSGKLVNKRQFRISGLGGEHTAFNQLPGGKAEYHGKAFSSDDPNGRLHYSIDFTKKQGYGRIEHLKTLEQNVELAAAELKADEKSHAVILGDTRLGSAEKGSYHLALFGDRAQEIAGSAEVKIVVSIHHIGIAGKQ

T8: fHbp m001607 (Neisseria meningitidis, fHbp …, point mutant)
T8 chain: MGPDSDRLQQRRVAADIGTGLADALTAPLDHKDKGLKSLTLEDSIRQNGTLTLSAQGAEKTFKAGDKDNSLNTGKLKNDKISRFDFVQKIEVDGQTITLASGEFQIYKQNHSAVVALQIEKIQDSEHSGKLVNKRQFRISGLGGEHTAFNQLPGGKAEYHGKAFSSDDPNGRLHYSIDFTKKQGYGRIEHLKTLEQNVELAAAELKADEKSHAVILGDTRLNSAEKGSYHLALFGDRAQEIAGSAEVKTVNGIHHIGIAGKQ

T9: fHbp m001661 (Neisseria meningitidis, fHbp …, point mutant)
T9 chain: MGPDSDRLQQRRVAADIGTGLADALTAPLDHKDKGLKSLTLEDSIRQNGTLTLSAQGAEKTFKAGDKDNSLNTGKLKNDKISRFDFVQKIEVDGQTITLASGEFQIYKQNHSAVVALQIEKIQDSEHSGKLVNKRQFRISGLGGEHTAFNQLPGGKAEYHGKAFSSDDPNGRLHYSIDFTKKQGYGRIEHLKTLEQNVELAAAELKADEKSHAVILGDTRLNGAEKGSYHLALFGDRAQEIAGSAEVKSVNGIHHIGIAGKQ

B1: chimeric antibody h12C1 (antibody, V domains shown)
VH: QVQLQESGPELVKPGASVKISCKASGYSFSDYNMSWVKQSNGKSLEWIGIIDPKYGTINYNQKFKGKATLTVDQASSTAYMQLNSLTSEDSAVYYCVRDYYGSSYFDYWGQGTTLTVSS
VL: DIVLTQSPSSIYASLGERVTLTCKASQDIHNYLNWFQQKPGKSPKTLIYRANRLVDGVPSRFSGGGSGQDYSLTISSLEFEDIGIYYCLQYDEFPPTFGGGTRLEIK
notes: also called humanized 12C1; source: Expi293, purified (MabSelect SuRe, SEC); copies: 2 + 2
B2: mAb 1E6 (human) (antibody, V domains shown)
VH: EVQLVQSGAEVKKPGSSVKVSCKASGGTVIDYPITWVRQAPGQGLEWVGGFVPLFRTSNYGQKFQGRVTITADKSTSTASMELNSLTSEDTAIYYCARGDTAMGPFDYWGQGTLVTVSS
VL: SYVLTQPPSLSVAPGKTATLTCGGNNIAGKTVHWYQQRPGQAPVLVISYDSDRPSGIPERFSGSNSANTATLTISRVEAGDEADYYCQVWDRNSDHWVFGGGTKLTVL
notes: source: Expi293, purified (MabSelect SuRe, SEC); copies: 2 + 2

Legend:
Experiment in all cases: BLI
Conditions in all cases: both partners purified
fHbp m002333 = biological target: T1, fHbp m002333
fHbp m001199 = biological target: T2, fHbp m001199
fHbp m001659 = biological target: T3, fHbp m001659
fHbp m002419 = biological target: T4, fHbp m002419
fHbp m001039 = biological target: T5, fHbp m001039
fHbp m002336 = biological target: T6, fHbp m002336
fHbp m001152 = biological target: T7, fHbp m001152
fHbp m001607 = biological target: T8, fHbp m001607
fHbp m001661 = biological target: T9, fHbp m001661

Binder | Kd (fHbp m002333) | koff (fHbp m002333) | kon (fHbp m002333) | Kd (fHbp m001199) | koff (fHbp m001199) | kon (fHbp m001199) | Kd (fHbp m001659) | koff (fHbp m001659) | kon (fHbp m001659) | Kd (fHbp m002419) | koff (fHbp m002419) | kon (fHbp m002419) | Kd (fHbp m001039) | koff (fHbp m001039) | kon (fHbp m001039) | Kd (fHbp m002336) | koff (fHbp m002336) | kon (fHbp m002336) | Kd (fHbp m001152) | koff (fHbp m001152) | further results
B1 | 166 nM | 0.01686 ± 0.000166 s⁻¹ | 102000 ± 4590 M⁻¹ s⁻¹ | 25.1 nM | 0.0095 s⁻¹ | 378900 ± 3300 M⁻¹ s⁻¹ | 1.75 nM | 0.000578 s⁻¹ | 330000 ± 3440 M⁻¹ s⁻¹ | 0.237 nM | 3.39e-05 s⁻¹ | 143000 ± 1520 M⁻¹ s⁻¹ | 65.7 nM | 0.0146 s⁻¹ | 223000 ± 3080 M⁻¹ s⁻¹ | 47.1 nM | 0.01231 ± 0.000116 s⁻¹ | 261000 ± 9540 M⁻¹ s⁻¹ | 45.9 nM | 0.00937 s⁻¹ | kon (fHbp m001152): 204000 ± 3360 M⁻¹ s⁻¹; Kd (fHbp m001607): 32.9 nM; koff (fHbp m001607): 0.012 s⁻¹; kon (fHbp m001607): 366000 ± 13300 M⁻¹ s⁻¹; Kd (fHbp m001661): 167 nM; koff (fHbp m001661): 0.0207 ± 0.000141 s⁻¹; kon (fHbp m001661): 124000 ± 4490 M⁻¹ s⁻¹
B2 | 0.0267 nM | 6.18e-06 s⁻¹ | 231300 ± 2110 M⁻¹ s⁻¹ | 0.329 nM | 0.000132 s⁻¹ | 400500 ± 3250 M⁻¹ s⁻¹ | 0.716 nM | 0.000306 s⁻¹ | 427300 ± 1410 M⁻¹ s⁻¹ | 0.191 nM | 5.3e-05 s⁻¹ | 277200 ± 2090 M⁻¹ s⁻¹ | 0.655 nM | 0.00031 s⁻¹ | 473100 ± 1890 M⁻¹ s⁻¹ | < 0.001 nM | < 1e-07 s⁻¹ | 676300 ± 4120 M⁻¹ s⁻¹ | 0.291 nM | 0.000121 s⁻¹ | kon (fHbp m001152): 415300 ± 2380 M⁻¹ s⁻¹; Kd (fHbp m001607): 0.242 nM; koff (fHbp m001607): 0.000117 s⁻¹; kon (fHbp m001607): 484000 ± 5230 M⁻¹ s⁻¹; Kd (fHbp m001661): 0.678 nM; koff (fHbp m001661): 0.000193 s⁻¹; kon (fHbp m001661): 285300 ± 2180 M⁻¹ s⁻¹

Source: article PMC12319226 (Frontiers in Bioinformatics, 2025)
